Assay results published in US20100310509A1 (published 2010).

T1: soluble gp130 (R&D Systems # 228-GP-050/CF) (UniProt P40189 23-619, limits assumed)
T1 construct: extracellular domain; Bought
T1 sequence (looked up): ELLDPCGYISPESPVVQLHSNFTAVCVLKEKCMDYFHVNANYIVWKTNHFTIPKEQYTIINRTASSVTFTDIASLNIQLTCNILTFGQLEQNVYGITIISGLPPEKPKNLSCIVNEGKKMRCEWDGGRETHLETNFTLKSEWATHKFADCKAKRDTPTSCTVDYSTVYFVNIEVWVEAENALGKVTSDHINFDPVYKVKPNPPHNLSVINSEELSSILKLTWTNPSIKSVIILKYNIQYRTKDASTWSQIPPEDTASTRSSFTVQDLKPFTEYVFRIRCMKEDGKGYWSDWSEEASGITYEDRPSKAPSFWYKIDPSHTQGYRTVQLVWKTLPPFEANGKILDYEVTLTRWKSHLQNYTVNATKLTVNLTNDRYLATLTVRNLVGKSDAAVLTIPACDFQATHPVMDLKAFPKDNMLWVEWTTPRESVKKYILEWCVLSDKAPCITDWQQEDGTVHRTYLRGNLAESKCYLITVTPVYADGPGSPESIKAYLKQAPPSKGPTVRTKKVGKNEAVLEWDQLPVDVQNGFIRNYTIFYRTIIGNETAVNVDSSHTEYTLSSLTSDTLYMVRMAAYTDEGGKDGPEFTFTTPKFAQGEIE

T2: soluble human LIFR (leukemia inhibitory factor receptor) (human, UniProt P42702 45-833)
T2 construct: extracellular domain; Bought; also called soluble LIFR
T2 sequence (looked up): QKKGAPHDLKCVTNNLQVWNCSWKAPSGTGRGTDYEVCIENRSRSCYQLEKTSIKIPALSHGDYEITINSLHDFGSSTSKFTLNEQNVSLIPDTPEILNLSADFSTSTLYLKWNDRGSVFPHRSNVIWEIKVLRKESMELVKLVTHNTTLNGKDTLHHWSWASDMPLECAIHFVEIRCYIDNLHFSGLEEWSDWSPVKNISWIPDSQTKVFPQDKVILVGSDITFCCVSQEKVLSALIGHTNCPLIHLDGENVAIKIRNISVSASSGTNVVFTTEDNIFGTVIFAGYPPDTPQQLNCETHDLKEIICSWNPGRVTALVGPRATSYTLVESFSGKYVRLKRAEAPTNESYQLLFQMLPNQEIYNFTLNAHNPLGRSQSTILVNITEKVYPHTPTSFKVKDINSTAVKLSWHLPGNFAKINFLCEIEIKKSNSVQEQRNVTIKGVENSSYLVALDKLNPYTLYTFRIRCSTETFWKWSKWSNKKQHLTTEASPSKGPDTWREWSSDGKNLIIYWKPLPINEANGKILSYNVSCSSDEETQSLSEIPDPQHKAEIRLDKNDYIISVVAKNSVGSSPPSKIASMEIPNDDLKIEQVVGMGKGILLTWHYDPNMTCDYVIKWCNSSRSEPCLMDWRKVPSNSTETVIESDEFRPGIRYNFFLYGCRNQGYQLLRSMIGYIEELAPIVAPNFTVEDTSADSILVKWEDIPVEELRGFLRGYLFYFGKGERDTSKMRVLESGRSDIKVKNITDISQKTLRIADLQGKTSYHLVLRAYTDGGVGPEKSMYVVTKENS


How the values were obtained:
[1] = biological target: T1, soluble gp130 (R&D Systems # …); test: SPR, ratio of KD values
Method: (§1) A concentration series of soluble LIFR (# 249-LR-050/CF, R&D Systems, Minneapolis, Minn.), soluble OSMR (# 4389-OR-50, R&D Systems, Minneapolis, Minn.) or soluble gp130 (# 228-GP-050/CF, R&D Systems, Minneapolis, Minn.) in running buffer (10 mM HEPES pH 7.4, 150 mM NaCl, 3.4 mM EDTA, 0.005% Tween-20) were injected over both channels at a flow rate of 25 μl/min. Following a dissociation period of 3 minutes, the surfaces were regenerated by injecting 10 mM NaOH for 30 seconds. Rate constants for association (kₐ) and dissociation (kd) rates were derived by global analysis of the response curves fit to a 1:1 kinetic model (Equations 1 and 2) using QDat software (BioLogic Software, Ltd. Knoxville Tenn. and Nomadics, Inc. Stillwater, Okla.) using 1:1 stoichiometry.
(§2) Reducing the size of the BC loop improves OSM's affinity towards LIFR and OSMR. […] To directly measure the binding kinetics of these ligand-receptor interactions, surface plasmon resonance (SPR) was used. The cytokines (LIF, OSM-WT, OSM-M1 and OSM-M2) were immobilized on the sensor chip surface, while recombinant soluble receptors were used as the analytes (FIG. 11).

[2] = biological target: T2, soluble human LIFR (leukemia inhibitory …); test: SPR, ratio of KD values
Method: as §1, §2

fold higher affinity than towards LIFR [1]	fold higher affinity than towards gp130 [2]	Binder
2 fold		OSM-WT ('AGA' modified human Oncostatin M, referred to as wild-type OSM) (ligand, also called hOSM with AGA modification; not shown: N-terminal FLAG tag left after thrombin removal of GST) AAIGSCSKEYRVLLGQLQKQTDLMQDTSRLLDPYIRIQGLDVPKLREHCRERPGAFPSEETLRGLGRRGFLQTLNATLGCVLHRLADLEQRLPKAQDLERSGLNIEDLEKLQMARPNILGLRNNIYCMAQLLDNSDTAEPTKAGAGASQPPTPTPASDAFQRKLEGCRFLHGYHRFMHSVGRVFSKWGESPN
	23 fold	human leukemia inhibitory factor (LIF) (ligand, Purified recombinant protein; also called hLIF) not shown
